T1: I-OnuI (Ophiostoma novo-ulmi)
T1 chain: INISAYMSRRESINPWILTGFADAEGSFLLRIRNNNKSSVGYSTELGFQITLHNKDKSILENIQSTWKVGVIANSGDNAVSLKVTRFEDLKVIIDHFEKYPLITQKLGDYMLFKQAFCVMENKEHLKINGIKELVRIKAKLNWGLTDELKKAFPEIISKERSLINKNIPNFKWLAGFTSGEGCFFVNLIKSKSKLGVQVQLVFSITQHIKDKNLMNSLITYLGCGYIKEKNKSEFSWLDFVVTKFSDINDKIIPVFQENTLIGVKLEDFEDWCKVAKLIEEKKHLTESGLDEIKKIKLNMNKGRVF

T2: I-LtrI (Leptographium truncatum, UniProt C7SWF3 C7SWF3:407-712)
T2 sequence: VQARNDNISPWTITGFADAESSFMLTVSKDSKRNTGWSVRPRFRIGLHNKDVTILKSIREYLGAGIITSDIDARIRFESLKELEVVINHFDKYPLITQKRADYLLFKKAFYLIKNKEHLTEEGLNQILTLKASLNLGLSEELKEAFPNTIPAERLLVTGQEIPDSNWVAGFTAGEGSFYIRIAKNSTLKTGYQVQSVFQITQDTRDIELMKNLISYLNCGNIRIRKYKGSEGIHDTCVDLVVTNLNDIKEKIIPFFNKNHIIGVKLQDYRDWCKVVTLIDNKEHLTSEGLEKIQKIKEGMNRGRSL

B1: I-OnuI wild-type target site (RPS3) (dsDNA)
DNA 1: TTTCCACTTATTCAACCTTTTA
DNA 2: TAAAAGGTTGAATAAGTGGAAA
B2: I-LtrI co-crystal duplex (dsDNA)
DNA 1: GGTCTAAACGTCGTATAGGAGCATTTGG
DNA 2: CAAATGCTCCTATACGACGTTTAGACCC

How the values were obtained:
I-OnuI = molecular target: T1, I-OnuI; test: structure; co-crystal structure at 2.4 A (PDB 3QQY); details: tags: GST fusion (pGEX-6P-3), tag removed by PreScission protease; label: 32P (radiolabeled) in EMSA and cleavage
I-LtrI = molecular target: T2, I-LtrI; test: structure; co-crystal structure at 2.7 A (PDB 3R7P); details: overhang ends
Experimental: To obtain I-LtrI-DNA co-crystals, the DNA oligonucleotides (5′-[…]-3′ (SEQ ID NO: 119) and 5′-[…]-3′ (SEQ ID NO:120)) were purchased from Integrated DNA Technologies ([…], standard desalting purification). The oligonucleotides were dissolved in TE buffer (10 mM Tris-HCl (pH 8.0) and 1 mM EDTA), and the complementary DNA strands were annealed by incubation at 95° C. for 10 min and slow cooling to 4° C. over a six hour period. […] The protein-DNA drops were mixed in a 1:1 volume ratio with a reservoir solution containing 100 mM Bis-Tris (pH 6.5), 200 mM magnesium chloride, and 20% (v/v) polyethylene glycol 3500 and equilibrated at 22° C. The crystals diffracted up to approximately 2.7 Å resolution at the ALS beamline 5.0.1. The data set was processed using HKL2000 package. The polyalanine model of I-OnuI/DNA complex (PDB ID: 3QQY) was used as a search model for molecular replacement. One copy of the search model was found and the structure was refined using REFMAC5. The final model was deposited in RCSB Protein Data Bank with ID code 3R7P.

Binder	binding result (I-OnuI)	binding result (I-LtrI)
B1	binds	
B2		binds

Reference: patent publication US20140148361, “Generation and Expression of Engineered I-ONUI Endonuclease and Its Homologues and Uses Thereof” (published 2014)
